Residue numbers refer to the chain shown, from its start.

Experiment [1] concerns the target T1, native NPR of mouse brain (mouse, UniProt Q99J85 1-493).
T1 sequence (looked up): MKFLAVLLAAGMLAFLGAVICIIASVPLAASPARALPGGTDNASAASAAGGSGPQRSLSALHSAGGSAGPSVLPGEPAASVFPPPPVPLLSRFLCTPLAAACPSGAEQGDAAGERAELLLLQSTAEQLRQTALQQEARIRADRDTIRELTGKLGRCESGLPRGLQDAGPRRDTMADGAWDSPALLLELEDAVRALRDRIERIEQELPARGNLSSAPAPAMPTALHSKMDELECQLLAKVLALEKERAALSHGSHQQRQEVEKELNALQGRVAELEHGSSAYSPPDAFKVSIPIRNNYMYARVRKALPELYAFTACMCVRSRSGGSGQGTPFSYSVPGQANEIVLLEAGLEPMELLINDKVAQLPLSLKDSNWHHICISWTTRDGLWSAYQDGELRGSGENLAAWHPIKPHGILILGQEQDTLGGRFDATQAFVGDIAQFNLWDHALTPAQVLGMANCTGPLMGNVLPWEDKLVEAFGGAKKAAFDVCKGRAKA
In words: co-IP from mouse brain lysate with a rabbit antibody to Narp; knockout lysates as controls. From the text: (§1) Narp and NP1 form highly organized homo- and hetero-multimer complexes that are covalently linked by N-terminal disulfide bonds (Xu et al., supra). Moreover, NPR and Narp formed heteromultimer complexes when coexpressed in HEK293T cells. Heteromultimer complex formation is dependent on the first and third cysteines of NPs that flank the first coiled-coil domain (Xu et al., supra). NPR was co-expressed with mutants of Narp, in which two or all three of the cysteines are mutated to serine. In mutant “Narp (C1, 2S),” the cysteines at positions 14 and […] were mutated to serines, and in mutant “Narp (C1, 2, 3S)” the cysteines at positions 14, 26, and 79 were mutated to serines. […] Thus, it appeared that NPR and Narp formed heterocomplexes that are stabilized by disulfide bonds. To examine NP complexes in brain, lysates from a control mouse were prepared and immunoprecipitated with rabbit antibody specific to NP1 or Narp. Lysates from knockout mice NP1 KO, Narp KO and combined NP1/Narp/NPR KO (NP TKO) were also utilized as controls. […] The ˜25 kDa band, presumptive NTF-NPR, also specifically co-IPed with both Narp and NP1. […] The pentraxin domain of Narp and NP1 is required for interaction with AMPAR.

In experiment [2] the target is T1, native NPR of mouse brain. In words: co-IP from mouse brain lysate with a rabbit antibody to NP1; knockout lysates as controls.
Excerpt: as §1

The target of experiment [3] is T2, EC1 domain of GluR6 (display construct) (UniProt P42260 32-561, limits assumed).
T2 construct: domain: EC1 domain
T2 sequence (looked up): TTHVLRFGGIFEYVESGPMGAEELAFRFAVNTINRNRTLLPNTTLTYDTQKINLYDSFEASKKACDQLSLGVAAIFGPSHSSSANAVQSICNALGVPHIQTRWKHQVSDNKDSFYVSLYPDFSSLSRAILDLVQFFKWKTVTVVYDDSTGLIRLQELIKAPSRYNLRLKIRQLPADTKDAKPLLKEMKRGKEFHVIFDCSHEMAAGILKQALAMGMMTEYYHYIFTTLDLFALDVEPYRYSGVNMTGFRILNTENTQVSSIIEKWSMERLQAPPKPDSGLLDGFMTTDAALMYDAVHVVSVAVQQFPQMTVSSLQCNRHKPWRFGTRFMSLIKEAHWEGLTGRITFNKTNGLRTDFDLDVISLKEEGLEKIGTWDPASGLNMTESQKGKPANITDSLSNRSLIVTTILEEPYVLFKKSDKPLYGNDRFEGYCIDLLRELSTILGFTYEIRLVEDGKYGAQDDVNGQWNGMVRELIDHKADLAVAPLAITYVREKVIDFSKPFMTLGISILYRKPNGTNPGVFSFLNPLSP
In words: co-clustering on transfected cells.

In experiment [4] the target is T3, NMDA receptor subunits NR1 and NR2A (UniProt P35439 19-938; Q00959 23-1464).
T3 construct: whole, on cells; Co-expressed in 293 cells; also called NR1/2A
In words: co-clustering in co-transfected 293 cells, immunostaining.

For experiment [5], the target named is T4, neuronal glutamate transporter EAAC1 (UniProt P51907 1-523).
T4 construct: whole, on cells
T4 sequence (looked up): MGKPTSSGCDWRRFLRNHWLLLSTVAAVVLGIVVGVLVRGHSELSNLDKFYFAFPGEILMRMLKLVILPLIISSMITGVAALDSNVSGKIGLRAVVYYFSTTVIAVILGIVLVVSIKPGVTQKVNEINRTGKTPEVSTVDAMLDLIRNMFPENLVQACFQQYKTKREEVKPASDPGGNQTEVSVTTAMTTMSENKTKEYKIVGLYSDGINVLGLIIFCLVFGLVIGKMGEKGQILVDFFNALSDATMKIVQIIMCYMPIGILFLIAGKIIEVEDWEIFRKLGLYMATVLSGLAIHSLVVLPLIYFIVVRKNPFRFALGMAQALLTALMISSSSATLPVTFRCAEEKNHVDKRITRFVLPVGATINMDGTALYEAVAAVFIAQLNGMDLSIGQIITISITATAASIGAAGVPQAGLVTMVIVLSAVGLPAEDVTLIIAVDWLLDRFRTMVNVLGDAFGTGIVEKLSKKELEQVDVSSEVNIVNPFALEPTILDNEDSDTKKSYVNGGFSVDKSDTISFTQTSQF
Described as above.

Experiment [6] deals with T5, kainate receptor subunit GluR6 (UniProt P42260 32-908, limits assumed).
T5 construct: whole, on cells
The experiment is described as above.

Experiment [7] addresses T6, NMDA receptor subunit NR1 (UniProt P35439 19-938).
T6 construct: whole, on cells
Described as above.

The target of experiment [8] is T7, HA-GluR6 (GluR6 with an N-terminal HA tag) (UniProt P42260 32-908).
T7 construct: mature; also called wildtype HA GluR6
Kind of experiment: co-IP from co-transfected HEK 293T cells.

The target in experiment [9] is metabotropic glutamate receptor mGluR5 (UniProt P31424 21-1203, limits assumed). In words: biochemical assays, not described further.
Sequence of metabotropic glutamate receptor mGluR5 (P31424 21-1203 limits assumed): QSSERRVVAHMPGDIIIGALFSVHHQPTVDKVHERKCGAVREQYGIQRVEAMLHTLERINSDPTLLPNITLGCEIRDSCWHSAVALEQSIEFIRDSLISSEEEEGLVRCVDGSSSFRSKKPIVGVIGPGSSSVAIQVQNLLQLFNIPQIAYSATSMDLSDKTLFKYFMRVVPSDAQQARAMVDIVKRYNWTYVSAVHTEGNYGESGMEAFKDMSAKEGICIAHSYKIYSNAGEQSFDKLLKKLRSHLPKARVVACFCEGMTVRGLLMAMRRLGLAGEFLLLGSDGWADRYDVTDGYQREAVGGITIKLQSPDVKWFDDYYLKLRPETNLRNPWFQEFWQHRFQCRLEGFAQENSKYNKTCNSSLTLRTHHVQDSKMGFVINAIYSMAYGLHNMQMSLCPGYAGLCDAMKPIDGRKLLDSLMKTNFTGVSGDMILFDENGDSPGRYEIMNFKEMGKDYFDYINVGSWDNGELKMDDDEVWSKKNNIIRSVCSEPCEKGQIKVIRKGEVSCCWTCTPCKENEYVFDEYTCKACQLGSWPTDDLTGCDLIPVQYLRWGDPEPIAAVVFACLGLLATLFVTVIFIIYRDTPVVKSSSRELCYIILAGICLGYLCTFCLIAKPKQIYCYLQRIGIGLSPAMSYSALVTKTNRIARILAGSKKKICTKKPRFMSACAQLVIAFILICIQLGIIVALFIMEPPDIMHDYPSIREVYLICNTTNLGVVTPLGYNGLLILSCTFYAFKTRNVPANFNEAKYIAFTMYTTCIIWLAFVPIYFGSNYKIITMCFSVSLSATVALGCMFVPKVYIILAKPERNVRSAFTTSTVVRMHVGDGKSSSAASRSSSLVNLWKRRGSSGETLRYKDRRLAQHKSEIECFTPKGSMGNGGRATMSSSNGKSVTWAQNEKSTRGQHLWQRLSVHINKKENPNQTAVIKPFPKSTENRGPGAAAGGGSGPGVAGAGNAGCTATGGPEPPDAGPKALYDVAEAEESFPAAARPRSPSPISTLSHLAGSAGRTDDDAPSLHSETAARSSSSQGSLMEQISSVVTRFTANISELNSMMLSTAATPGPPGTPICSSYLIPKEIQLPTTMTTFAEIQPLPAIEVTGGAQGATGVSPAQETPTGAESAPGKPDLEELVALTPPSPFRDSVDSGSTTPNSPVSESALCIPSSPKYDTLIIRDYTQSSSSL
The target in experiment [10] is T8, GluR6-HA (HA tagged GluR6 of Example 10) (UniProt P42260 32-908, limits assumed).
T8 construct: whole, on cells; not shown: HA tag
T8 sequence (P42260 32-908 limits assumed): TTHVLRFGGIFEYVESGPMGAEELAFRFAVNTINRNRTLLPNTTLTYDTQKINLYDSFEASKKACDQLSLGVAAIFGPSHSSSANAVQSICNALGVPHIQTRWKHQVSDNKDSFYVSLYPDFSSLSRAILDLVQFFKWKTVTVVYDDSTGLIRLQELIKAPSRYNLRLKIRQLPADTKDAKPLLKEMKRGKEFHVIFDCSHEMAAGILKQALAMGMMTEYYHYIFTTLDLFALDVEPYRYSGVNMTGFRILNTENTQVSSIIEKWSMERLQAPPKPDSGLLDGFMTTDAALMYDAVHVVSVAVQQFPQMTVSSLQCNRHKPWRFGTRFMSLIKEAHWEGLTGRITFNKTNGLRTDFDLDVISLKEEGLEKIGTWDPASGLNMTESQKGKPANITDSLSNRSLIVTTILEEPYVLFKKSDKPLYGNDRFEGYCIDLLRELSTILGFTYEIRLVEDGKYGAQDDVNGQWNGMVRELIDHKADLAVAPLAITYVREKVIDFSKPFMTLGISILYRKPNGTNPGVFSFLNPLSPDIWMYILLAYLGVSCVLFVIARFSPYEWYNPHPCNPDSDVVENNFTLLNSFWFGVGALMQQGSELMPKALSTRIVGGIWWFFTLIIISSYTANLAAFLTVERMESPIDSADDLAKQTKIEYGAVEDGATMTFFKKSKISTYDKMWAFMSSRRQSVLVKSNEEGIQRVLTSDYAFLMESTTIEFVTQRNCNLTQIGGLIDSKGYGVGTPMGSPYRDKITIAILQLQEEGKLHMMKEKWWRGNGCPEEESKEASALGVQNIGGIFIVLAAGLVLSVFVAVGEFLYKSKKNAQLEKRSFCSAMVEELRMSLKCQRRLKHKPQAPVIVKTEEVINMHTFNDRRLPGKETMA
Kind of experiment: co-IP from co-transfected HEK293T cells.
Excerpt: as §1
(§2) To determine if NPR would interact with AMPAR, AMPAR subunits from GluR1 or GluR6 were HA tagged (GluR1-HA and GluR6-HA, respectively) were co-transfected with myc-tagged Narp (Narp-myc) or NPR(NPR-myc) into HEK293T cells. Lysates were assayed for co-immunoprecipitation. […] Similarly, GluR1-HA but not GluR6-HA co-IPed with NPR-myc.

Experiment [11] addresses T9, neuronal pentraxin receptor (NPR), full length, rat (rat, UniProt O35764 1-494).
T9 construct: whole, on cells; Stands for NPR expressed in HEK293T cells and for native NPR of rat brain extracts; also called full-length NPR; wtNPR
T9 sequence (looked up): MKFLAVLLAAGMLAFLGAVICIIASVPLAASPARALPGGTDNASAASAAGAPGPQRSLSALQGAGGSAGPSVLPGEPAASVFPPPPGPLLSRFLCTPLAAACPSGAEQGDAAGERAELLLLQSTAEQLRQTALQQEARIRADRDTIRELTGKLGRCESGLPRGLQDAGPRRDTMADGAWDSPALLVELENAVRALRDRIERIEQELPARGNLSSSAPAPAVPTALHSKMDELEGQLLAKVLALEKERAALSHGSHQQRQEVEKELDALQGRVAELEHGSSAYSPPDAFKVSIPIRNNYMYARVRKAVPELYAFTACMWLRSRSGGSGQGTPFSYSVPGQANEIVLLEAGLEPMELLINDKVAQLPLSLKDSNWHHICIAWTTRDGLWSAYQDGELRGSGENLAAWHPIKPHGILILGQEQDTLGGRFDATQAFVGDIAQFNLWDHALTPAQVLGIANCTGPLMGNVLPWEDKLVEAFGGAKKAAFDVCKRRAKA
In words: co-IP from co-transfected HEK293T cells.
Excerpt: as §1, §2

B1: native Narp of mouse brain (ligand, UniProt O70340 15-429, looked up)
chain: AGRAQDSPIPGSRFVCTALPPEAARAGCPLPAMPMQGGALSPEEELRAAVLQLRETVVQQKETLGAQREAIRELTGKLARCEGLAGGKARGTGKDTMGDLPRDPGHVVEQLSRSLQTLKDRLESLELQLRTNVSNAGLPSDFREVLQRRLGELERQLLRKVAELEDEKSLLHNETSAHRQKTESTLNALLQRVTELERGNSAFKSPDAFKVSLPLRTNYLYGKIKKTLPELYAFTICLWLRSSASPGIGTPFSYAVPGQANEIVLIEWGNNPIELLINDKVAQLPLFVSDGKWHHICITWTTRDGMWEAFQDGEKLGTGENLAPWHPIKPGGVLILGQEQDTVGGRFDATQAFVGELSQFNIWDRVLRAQEIINIANCSTNMPGNIIPWVDNNVDVFGGASKWPVETCEERLLDL
For B1, the binding result in experiment [1] is on record as “binds”.

B2: native neuronal pentraxin 1 (NP1) of mouse brain (ligand, UniProt Q62443 23-432, looked up)
chain: QDFGPTRFICTSVPVDADMCAASVAAGGAEELRSNVLQLRETVLQQKETILSQKETIRELTTKLGRCESQSTLDSGPGEARSGGGRKQPGSGKNTMGDLSRTPAAETLSQLGQTLQSLKTRLENLEQYSRLNSSSQTNSLKDLLQSKIDDLERQVLSRVNTLEEGKGGPKNDTEERAKIESALTSLHQRISELEKGQKDNRPGDKFQLTFPLRTNYMYAKVKKSLPEMYAFTVCMWLKSSAAPGVGTPFSYAVPGQANELVLIEWGNNPMEILINDKVAKLPFVINDGKWHHICVTWTTRDGVWEAYQDGTQGGNGENLAPYHPIKPQGVLVLGQEQDTLGGGFDATQAFVGELAHFNIWDRKLTPGEVYNLATCSSKALSGNVIAWAESQIEIFGGATKWTFEACRQIN
As to B2, the binding result in experiment [2] is “binds”.

B3: Neuronal activity regulated pentraxin (Narp) (ligand)
chain: QAQDNPIPGSRFVCTALPPEAARAGCPLPAMPMQGGALSPEEELRAAVLHWRETVVQQKETLGAQREAIRELTSKLARCEGLAGGKARGTGATGKDTMGDLPRDPGHVVEQLSRSLQTLKDRLESLELQLHTNASNAGLPSDFREVLQRRLGELERQLLRKVAELEDEKSLLHNETSAHRQKTENTLNALLQRVTELERGNSAFKSPDAFKVSLPLRTNYLYGKIKKTLPELYAFTICLWLRSSASPGIGTPFSYAVPGQANEIVLIEWGNNPIELLINDKVAQLPLFVSDGKWHHICITWTTRDGMWEAFQDGEKLGTGENLAPWHPIKPGGVLILGQEQDTVGGRFDATQAFVGELSQFNIWDRVLRAQEIINIANCSTNMPGNIIPWVDNNVDVFGGASKWPVETCEERLLDL
notes: Secreted, glycosylated, disulfide-linked multimer (>220 kDa on non-reducing gels); The signal peptide is called putative; also called neuronal pentraxin 2; untagged Narp
For the molecule B3, the binding result in experiment [3], in [4], in [5], in experiment [6], in [7] and in experiment [8] was “no binding” throughout. Further, the binding result in experiment [9] was “no binding”.

B4: C-terminal myc-tagged version of Narp (myc-Narp) (ligand)
chain: B3 chain
notes: also called myc-tagged Narp; myc-tagged full length Narp; not shown: C-terminal myc tag
B4: the binding result in experiment [10] is on record as “no binding”.

B5: Narp (C1, 2, 3S)-myc, Narp mutant in which cysteines 14, 26, and 79 are mutated to serines (ligand)
chain: B3 chain with C14S, C26S, C79S
notes: also called mutant Narp; not shown: C-terminal myc tag
B5: the binding result in experiment [11] is given as “no binding”.

B6: Narp (C1, 3S)-myc, Narp mutant in which cysteines 14 and 79 are mutated to serines (ligand)
chain: B3 chain with C14S, C79S
notes: also called Narp (C1, 2S); mutant Narp; not shown: C-terminal myc tag
In the case of B6, the binding result in experiment [11] is “no binding”.

The record behind these values is US20090123940A1 (Johns Hopkins, published 2009).
